Laboratory results from the supplement of paper PMC5998384.

Assays:
HeLa Kyoto [1] = test: solubility in G1/S (NP-40 vs SDS abundance) (log2 ratio); higher = more soluble; settings: cell cycle stage: G1/S
HeLa Kyoto [2] = test: melting temperature (median over replicates), in situ; higher = more thermally stable
HeLa Kyoto [3] = test: solubility change mitosis vs G1/S (difference of NP-40 vs SDS log2 ratios) (log2 ratio difference); higher = more soluble in mitosis
HeLa Kyoto [4] = test: thermal stability score vs G1/S (z-score of summed log2 fold changes over temperatures); higher = more thermally stable than in G1/S
[5] = cell cycle stage: early G1 (4.5 h after nocodazole release)
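For melting temperature (median over replicates), in situ in this document: HeLa Kyoto cells synchronized by double thymidine or nocodazole block, proteins quantified by TMT10plex mass spectrometry, three independent biological replicates.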
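For solubility change mitosis vs G1/S (difference of NP-40 vs SDS log2 ratios) in this document: synchronized HeLa Kyoto cells (double thymidine block for G1/S, nocodazole release for mitosis), protein amounts in NP-40 versus SDS lysates quantified by mass spectrometry, three biological replicates.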
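For solubility in G1/S (NP-40 vs SDS abundance) in this document: HeLa Kyoto cells arrested at G1/S by double thymidine block, proteins quantified by TMT10plex mass spectrometry in mild NP-40 versus SDS extracts, three biological replicates.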
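For thermal stability score vs G1/S (z-score of summed log2 fold changes over temperatures) in this document: synchronized HeLa Kyoto cells, proteins quantified by TMT10plex mass spectrometry, three biological replicates, mitosis taken 0.5 h after nocodazole release, G1/S directly after double thymidine block.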

Q: “MASEKPLAAVTCTAPVNIAVIKYWGKRDEELVLPINSSLSVTLHQDQLKTTTTAVISKDFTEDRIWLNGREEDVGQPRLQACLREIRCLARKRRNSRDGDPLPSSLSCKVHVASVNNFPTAAGLASSAAGYACLAYTLARVYGVESDLSEVARRGSGSACRSLYGGFVEWQMGEQADGKDSIARQVAPESHWPELRVLILVVSAEKKLTGSTVGMRASVETSPLLRFRAESVVPARMAEMARCIRERDFPSFAQLTMKDSNQFHATCLDTFPPISYLNAISWRIIHLVHRFNAHHGDTKVAYTFDAGPNAVIFTLDDTVAEFVAAVWHGFPPGSNGDTFLKGLQVRPAPLSAELQAALAMEPTPGGVKYIIVTQVGPGPQILDDPCAHLLGPDGLPKPAA [MVD]” was tested. Which “solubility in G1/S (log2)” value (HeLa Kyoto [1]) did it give?
A: 0.321

Q: And the melting temperature (HeLa Kyoto [2]; cell cycle stage: G1/S)?
A: 52.6 °C

Q: And the melting temperature (HeLa Kyoto [2]; cell cycle stage: mitosis)?
A: 52.6 °C

Q: What about the “solubility change mitosis (log2)” value (HeLa Kyoto [3]) of the same substance?
A: -0.138

Q: What about the thermal stability score (HeLa Kyoto [4]; [5]) of the same substance?
A: -0.632

Q: And the thermal stability score (HeLa Kyoto [4]; cell cycle stage: mitosis)?
A: -0.962

Q: How did the “solubility in G1/S (log2)” value (HeLa Kyoto [1]) turn out when “MSDEGSRGSRLPLALPPASQGCSSGGGGGGSSAGGSGNSRPPRNLQGLLQMAITAGSEEPDPPPEPMSEERRQWLQEAMSAAFRGQREEVEQMKSCLRVLSQPMPPTAGEAEQAADQQEREGALELLADLCENMDNAADFCQLSGMHLLVGRYLEAGAAGLRWRAAQLIGTCSQNVAAIQEQVLGLGALRKLLRLLDRDACDTVRVKALFAISCLVREQEAGLLQFLRLDGFSVLMRAMQQQVQKLKVKSAFLLQNLLVGHPEHKGTLCSMGMVQQLVALVRTEHSPFHEHVLGALCSLVTDFPQGVRECREPELGLEELLRHRCQLLQQHEEYQEELEFCEKLLQTCFSSPADDSMDR [HSPBP1]” was run?
A: 0.303

Q: And the melting temperature (HeLa Kyoto [2]; cell cycle stage: G1/S)?
A: 50.8 °C

Q: What about the melting temperature (HeLa Kyoto [2]; cell cycle stage: mitosis) of the same substance?
A: 51.2 °C

Q: What about the “solubility change mitosis (log2)” value (HeLa Kyoto [3]) of the same substance?
A: 0.0712

Q: What about the thermal stability score (HeLa Kyoto [4]; [5]) of the same substance?
A: 0.863

Q: What about the thermal stability score (HeLa Kyoto [4]; cell cycle stage: mitosis) of the same substance?
A: 0.675

Q: Which results are given for “MSLVAEAFVSQIAAAEPWPENATLYQQLKGEQILLSDNAASLAVQAFLQMCNLPIKVVCRANAEYMSPSGKVPFIHVGNQVVSELGPIVQFVKAKGHSLSDGLEEVQKAEMKAYMELVNNMLLTAELYLQWCDEATVGEITHARYGSPYPWPLNHILAYQKQWEVKRKMKAIGWGKKTLDQVLEDVDQCCQALSQRLGTQPYFFNKQPTELDALVFGHLYTILTTQLTNDELSEKVKNYSNLLAFCRRIEQHYFEDRGKGRLS [MTX2]”?
A: solubility in G1/S (log2) (HeLa Kyoto [1]): 0.186; melting temperature (HeLa Kyoto [2]; cell cycle stage: G1/S): 51.4 °C; melting temperature (HeLa Kyoto [2]; cell cycle stage: mitosis): 52.2 °C; solubility change mitosis (log2) (HeLa Kyoto [3]): 0.0491; thermal stability score (HeLa Kyoto [4]; [5]): -0.339; thermal stability score (HeLa Kyoto [4]; cell cycle stage: mitosis): -0.187

Q: What does the source list for “MEGLTLSDAEQKYYSDLFSYCDIESTKKVVVNGRVLELFRAAQLPNDVVLQIMELCGATRLGYFGRSQFYIALKLVAVAQSGFPLRVESINTVKDLPLPRFVASKNEQESRHAASYSSDSENQGSYSGVIPPPPGRGQVKKGSVSHDTVQPRTSADAQEPASPVVSPQQSPPTSPHTWRKHSRHPSGGNSERPLAGPGPFWSPFGEAQSGSSAGDAVWSGHSPPPPQENWVSFADTPPTSTLLTMHPASVQDQTTVRTVASATTAIEIRRQSSSYDDPWKITDEQRQYYVNQFKTIQPDLNGFIPGSAAKEFFTKSKLPILELSHIWELSDFDKDGALTLDEFCAAFHLVVARKNGYDLPEKLPESLMPKLIDLEDSADVGDQPGEVGYSGSPAEAPPSKSPSMPSLNQTWPELNQSSEQWETFSERSSSSQTLTQFDSNIAPADPDTAIVHPVPIRMTPSKIHMQEMELKRTGSDHTNPTSPLLVKPSDLLEENKINSSVKFASGNTVADGYSSSDSFTSDPEQIGSNVTRQRSHSGTSPDNTAPPPPPPRPQPSHSRSSSLDMNRTFTVTTGQQQAGVVAHPPAVPPRPQPSQAPGPAVHRPVDADGLITHTSTSPQQIPEQPNFADFSQFEVFAASNVNDEQDDEAEKHPEVLPAEKASDPASSLRVAKTDSKTEEKTAASAPANVSKGTTPLAPPPKPVRRRLKSEDELRPEVDEHTQKTGVLAAVLASQPSIPRSVGKDKKAIQASIRRNKETNTVLARLNSELQQQLKDVLEERISLEVQLEQLRPFSHL [REPS1]”?
A: solubility in G1/S (log2) (HeLa Kyoto [1]): 0.0849; melting temperature (HeLa Kyoto [2]; cell cycle stage: G1/S): 48.8 °C; melting temperature (HeLa Kyoto [2]; cell cycle stage: mitosis): 49.8 °C; solubility change mitosis (log2) (HeLa Kyoto [3]): -0.0971; thermal stability score (HeLa Kyoto [4]; [5]): 0.407; thermal stability score (HeLa Kyoto [4]; cell cycle stage: mitosis): 0.261

Q: For “MSLQSAQYLRQAEVLKADMTDSKLGPAEVWTSRQALQDLYQKMLVTDLEYALDKKVEQDLWNHAFKNQITTLQGQAKNRANPNRSEVQANLSLFLEAASGFYTQLLQELCTVFNVDLPCRVKSSQLGIISNKQTHTSAIVKPQSSSCSYICQHCLVHLGDIARYRNQTSQAESYYRHAAQLVPSNGQPYNQLAILASSKGDHLTTIFYYCRSIAVKFPFPAASTNLQKALSKALESRDEVKTKWGVSDFIKAFIKFHGHVYLSKSLEKLSPLREKLEEQFKRLLFQKAFNSQQLVHVTVINLFQLHHLRDFSNETEQHTYSQDEQLCWTQLLALFMSFLGILCKCPLQNESQEESYNAYPLPAVKVSMDWLRLRPRVFQEAVVDERQYIWPWLISLLNSFHPHEEDLSSISATPLPEEFELQGFLALRPSFRNLDFSKGHQGITGDKEGQQRRIRQQRLISIGKWIADNQPRLIQCENEVGKLLFITEIPELILEDPSEAKENLILQETSVIESLAADGSPGLKSVLSTSRNLSNNCDTGEKPVVTFKENIKTREVNRDQGRSFPPKEVRRDYSKGITVTKNDGKKDNNKRKTETKKCTLEKLQETGKQNVAVQVKSQTELRKTPVSEARKTPVTQTPTQASNSQFIPIHHPGAFPPLPSRPGFPPPTYVIPPPVAFSMGSGYTFPAGVSVPGTFLQPTAHSPAGNQVQAGKQSHIPYSQQRPSGPGPMNQGPQQSQPPSQQPLTSLPAQPTAQSTSQLQVQALTQQQQSPTKAVPALGKSPPHHSGFQQYQQADASKQLWNPPQVQGPLGKIMPVKQPYYLQTQDPIKLFEPSLQPPVMQQQPLEKKMKPFPMEPYNHNPSEVKVPEFYWDSSYSMADNRSVMAQQANIDRRGKRSPGVFRPEQDPVPRMPFEKSLLEKPSELMSHSSSFLSLTGFSLNQERYPNNSMFNEVYGKNLTSSSKAELSPSMAPQETSLYSLFEGTPWSPSLPASSDHSTPASQSPHSSNPSSLPSSPPTHNHNSVPFSNFGPIGTPDNRDRRTADRWKTDKPAMGGFGIDYLSATSSSESSWHQASTPSGTWTGHGPSMEDSSAVLMESLKSIWSSSMMHPGPSALEQLLMQQKQKQQRGQGTMNPPH [SMG7]”, which “solubility in G1/S (log2)” value (HeLa Kyoto [1]) is on record?
A: 0.0703

Q: What about the melting temperature (HeLa Kyoto [2]; cell cycle stage: G1/S) of the same substance?
A: 50.4 °C

Q: What about the melting temperature (HeLa Kyoto [2]; cell cycle stage: mitosis) of the same substance?
A: 49.3 °C

Q: What about the “solubility change mitosis (log2)” value (HeLa Kyoto [3]) of the same substance?
A: -0.127

Q: What about the thermal stability score (HeLa Kyoto [4]; [5]) of the same substance?
A: 0.868

Q: What about the thermal stability score (HeLa Kyoto [4]; cell cycle stage: mitosis) of the same substance?
A: 1.4

Q: With “MHSRGREIVVLLNPWSINEAVSSYCTYFIKQDSKSFGIMVSWKGIYFILTLFWGSFFGSIFMLSPFLPLMFVNPSWYRWINNRLVATWLTLPVALLETMFGVKVIITGDAFVPGERSVIIMNHRTRMDWMFLWNCLMRYSYLRLEKICLKASLKGVPGFGWAMQAAAYIFIHRKWKDDKSHFEDMIDYFCDIHEPLQLLIFPEGTDLTENSKSRSNAFAEKNGLQKYEYVLHPRTTGFTFVVDRLREGKNLDAVHDITVAYPHNIPQSEKHLLQGDFPREIHFHVHRYPIDTLPTSKEDLQLWCHKRWEEKEERLRSFYQGEKNFYFTGQSVIPPCKSELRVLVVKLLSILYWTLFSPAMCLLIYLYSLVKWYFIITIVIFVLQERIFGGLEIIELACYRLLHKQPHLNSKKNE [LCLAT1]” as the substance, how does the “solubility in G1/S (log2)” value (HeLa Kyoto [1]) read?
A: -0.201

Q: And the melting temperature (HeLa Kyoto [2]; cell cycle stage: G1/S)?
A: 55.1 °C

Q: And the melting temperature (HeLa Kyoto [2]; cell cycle stage: mitosis)?
A: 54.7 °C

Q: And the “solubility change mitosis (log2)” value (HeLa Kyoto [3])?
A: -0.165

Q: And the thermal stability score (HeLa Kyoto [4]; [5])?
A: -2.01

Q: And the thermal stability score (HeLa Kyoto [4]; cell cycle stage: mitosis)?
A: -2.82

Q: What does the source list for “MAPGVARGPTPYWRLRLGGAALLLLLIPVAAAQEPPGAACSQNTNKTCEECLKNVSCLWCNTNKACLDYPVTSVLPPASLCKLSSARWGVCWVNFEALIITMSVVGGTLLLGIAICCCCCCRRKRSRKPDRSEEKAMREREERRIRQEERRAEMKTRHDEIRKKYGLFKEENPYARFENN [PTTG1IP]”?
A: solubility in G1/S (log2) (HeLa Kyoto [1]): -0.362; melting temperature (HeLa Kyoto [2]; cell cycle stage: G1/S): 56.3 °C; solubility change mitosis (log2) (HeLa Kyoto [3]): -0.143; thermal stability score (HeLa Kyoto [4]; [5]): -5.97; thermal stability score (HeLa Kyoto [4]; cell cycle stage: mitosis): -6.48

Q: Which results are given for MIA3?
A: solubility in G1/S (log2) (HeLa Kyoto [1]): 0.245; melting temperature (HeLa Kyoto [2]; cell cycle stage: G1/S): 51.4 °C; melting temperature (HeLa Kyoto [2]; cell cycle stage: mitosis): 52.2 °C; solubility change mitosis (log2) (HeLa Kyoto [3]): -0.082; thermal stability score (HeLa Kyoto [4]; [5]): 3.98; thermal stability score (HeLa Kyoto [4]; cell cycle stage: mitosis): 7.12
